# According to the supplement of paper PMC9112550, “Optimization of the antimicrobial peptide Bac7 by deep mutational scanning” (BMC Biology, 2022):
# Test system: Escherichia coli TOP10
# Test: shrunken log2 fold change of peptide-encoding DNA abundance (4.5 h post-induction vs induction); higher = less antimicrobial activity (less host growth inhibition)
# Conditions: time post-induction: 4.5 h; library: site-saturation at positions 5, 18, 19, 20
# 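Also: peptides expressed intracellularly from a pBAD plasmid library in pooled LB shake-flask culture, induced with 0.3% L-arabinose, DNA abundance read by NGS, three biological replicates, DESeq2 with apeglm shrinkage.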
row,Sequence,shrunken log2 fold change
1,RRIRHRPPRLPRPRPRPGLQPRP,0.157
2,RRIRYRPPRLPRPRPRPAHSPRP,-0.0299
3,RRIRVRPPRLPRPRPRPPFRPRP,0.421
4,RRIRWRPPRLPRPRPRPSAIPRP,-0.201
5,RRIRSRPPRLPRPRPRPEAEPRP,0.841
6,RRIRIRPPRLPRPRPRPHMAPRP,-0.367
7,RRIRARPPRLPRPRPRPRMQPRP,0.637
8,RRIRVRPPRLPRPRPRPSKMPRP,-0.243
9,RRIRERPPRLPRPRPRPEIGPRP,-0.166
10,RRIRGRPPRLPRPRPRPWLLPRP,0.216
11,RRIRLRPPRLPRPRPRPLAFPRP,-0.092
12,RRIRTRPPRLPRPRPRPAYWPRP,-0.017
13,RRIRARPPRLPRPRPRPQVKPRP,0.136
14,RRIRIRPPRLPRPRPRPWYNPRP,-0.343
15,RRIRQRPPRLPRPRPRPGLEPRP,0.134
16,RRIRARPPRLPRPRPRPRLLPRP,0.526
17,RRIRIRPPRLPRPRPRPMVCPRP,-0.0245
18,RRIRKRPPRLPRPRPRPGCKPRP,0.189
19,RRIRNRPPRLPRPRPRPASFPRP,-0.00784
20,RRIRCRPPRLPRPRPRPDVDPRP,0.0251
21,RRIRDRPPRLPRPRPRPGHHPRP,0.0913
22,RRIRCRPPRLPRPRPRPDWGPRP,-0.134
23,RRIRMRPPRLPRPRPRPFLKPRP,-0.636
24,RRIRGRPPRLPRPRPRPCQEPRP,0.0738
25,RRIRSRPPRLPRPRPRPREWPRP,0.759

row,Sequence,shrunken log2 fold change
1,RRIRGRPPRLPRPRPRPLSRPRP,1.17
2,RRIRERPPRLPRPRPRPTHGPRP,0.0992
3,RRIRCRPPRLPRPRPRPSDHPRP,-0.714
4,RRIRDRPPRLPRPRPRPHWFPRP,0.0318
5,RRIRSRPPRLPRPRPRPHDKPRP,-0.214
6,RRIRMRPPRLPRPRPRPQQYPRP,-0.017
7,RRIRRRPPRLPRPRPRPQMAPRP,0.455
8,RRIRIRPPRLPRPRPRPIEIPRP,-0.437
9,RRIRGRPPRLPRPRPRPYEEPRP,0.106
10,RRIRKRPPRLPRPRPRPRVCPRP,0.282
11,RRIRIRPPRLPRPRPRPNVRPRP,0.0422
12,RRIRDRPPRLPRPRPRPDRDPRP,-0.0722
13,RRIRWRPPRLPRPRPRPSQMPRP,-0.681
14,RRIRRRPPRLPRPRPRPESQPRP,0.303
15,RRIRKRPPRLPRPRPRPFTEPRP,0.0246
16,RRIRPRPPRLPRPRPRPEFRPRP,-0.00133
17,RRIRIRPPRLPRPRPRPYYDPRP,-0.0728
18,RRIRCRPPRLPRPRPRPECNPRP,-0.0881
19,RRIRARPPRLPRPRPRPYPTPRP,-0.0691
20,RRIRVRPPRLPRPRPRPAESPRP,0.0613
21,RRIRYRPPRLPRPRPRPRSYPRP,-0.879
22,RRIRCRPPRLPRPRPRPVVVPRP,-0.203
23,RRIRNRPPRLPRPRPRPSNAPRP,-0.343
24,RRIRHRPPRLPRPRPRPRSEPRP,0.117
25,RRIRDRPPRLPRPRPRPCCPPRP,-0.449

row,Sequence,shrunken log2 fold change
1,RRIRNRPPRLPRPRPRPPQYPRP,-0.0544
2,RRIRGRPPRLPRPRPRPNELPRP,0.552
3,RRIRSRPPRLPRPRPRPVPVPRP,0.362
4,RRIRPRPPRLPRPRPRPSWGPRP,-0.0123
5,RRIRKRPPRLPRPRPRPREGPRP,1.08
6,RRIRHRPPRLPRPRPRPSVEPRP,-0.2
7,RRIRVRPPRLPRPRPRPVTIPRP,-0.232
8,RRIRERPPRLPRPRPRPPDYPRP,-0.202
9,RRIRRRPPRLPRPRPRPIWAPRP,0.0342
10,RRIRFRPPRLPRPRPRPPRAPRP,0.92
11,RRIRPRPPRLPRPRPRPHDVPRP,-0.242
12,RRIRNRPPRLPRPRPRPWRRPRP,-0.0717
13,RRIRPRPPRLPRPRPRPITAPRP,-0.187
14,RRIRIRPPRLPRPRPRPPERPRP,0.324
15,RRIRTRPPRLPRPRPRPGLDPRP,0.0222
16,RRIRGRPPRLPRPRPRPEKEPRP,0.0374
17,RRIRARPPRLPRPRPRPPYFPRP,0.314
18,RRIRLRPPRLPRPRPRPIPFPRP,-0.0242
19,RRIRERPPRLPRPRPRPAIVPRP,0.00833
20,RRIRARPPRLPRPRPRPYCFPRP,-0.178
21,RRIRHRPPRLPRPRPRPIKMPRP,-0.0865
22,RRIRFRPPRLPRPRPRPRHMPRP,-0.124
23,RRIRFRPPRLPRPRPRPCKTPRP,0.00592
24,RRIRQRPPRLPRPRPRPIQGPRP,-0.0863
25,RRIRRRPPRLPRPRPRPNIFPRP,-0.0516
